From article PMC2596486 come the findings set out here.

pKd: −log10 of the molar value.

Assay [1] addresses rHA subtype H1 (A/New Caledonia/20/99) (Influenza A virus A/New Caledonia/20/1999 (H1N1)) (UniProt Q6WG00). Put plainly: SPR. On the technique in general: SPR reads the build-up and loss of mass on a sensor chip optically.
Assay [2] has as its target rHA subtype H1 (A/New Caledonia/20/99) (influenza A virus A/New Caledonia/20/99 (H1)) (UniProt Q6WG00). Description: SPR.

In assay [1], CR6323 Fab had a pKd of 8.41, an off-rate constant (koff) of 0.00054 s⁻¹ and a kon of 140000 M⁻¹ s⁻¹.

With CR6261 Fab, in assay [2], the pKd is 8.42, the dissociation rate constant (koff) turned out to be 0.0037 s⁻¹ and the association rate constant (kon) turned out to be 980000 M⁻¹ s⁻¹.

A word on the pKd: it is the Kd on a negative log10 scale, so that one unit is a factor of ten. A word on the koff: it is the first-order rate constant of dissociation. High values mean fast dissociation, low ones slow dissociation. In general, kon refers to the second-order rate constant of association.
